The values below come from patent US20130115212A1 (LUNDBECK A S, published 2013).

Where no end group is shown, it is not given here.

Experiment [1] deals with SorLA extracellular domain (immobilized on the Biacore chip) (Homo sapiens) (UniProt Q92673). In words: SPR (Biacore), SorLA immobilized; series of 20, 50, 100 and 200 nM.
Experiment [2] shares this target. In words: SPR, immobilized SorLA.
For experiment [3] the target is unchanged. The experiment is described as follows: SPR, GFRα1 over immobilized SorLA extracellular domain.
Experiment [4] deals with SorLA expressed on cells (stably transfected HEK293 cells; SY5Y neuroblastoma cells, endogenous or overexpressed) (Homo sapiens) (UniProt Q92673). In words: FRET on non-permeabilized fixed cells, SorLA acceptor, GFRα1 donor.
Chain of SorLA expressed on cells (stably transfected HEK293 cells; SY5Y neuroblastoma cells, endogenous or overexpressed) (Homo sapiens) (Q92673 82-2214 limits assumed): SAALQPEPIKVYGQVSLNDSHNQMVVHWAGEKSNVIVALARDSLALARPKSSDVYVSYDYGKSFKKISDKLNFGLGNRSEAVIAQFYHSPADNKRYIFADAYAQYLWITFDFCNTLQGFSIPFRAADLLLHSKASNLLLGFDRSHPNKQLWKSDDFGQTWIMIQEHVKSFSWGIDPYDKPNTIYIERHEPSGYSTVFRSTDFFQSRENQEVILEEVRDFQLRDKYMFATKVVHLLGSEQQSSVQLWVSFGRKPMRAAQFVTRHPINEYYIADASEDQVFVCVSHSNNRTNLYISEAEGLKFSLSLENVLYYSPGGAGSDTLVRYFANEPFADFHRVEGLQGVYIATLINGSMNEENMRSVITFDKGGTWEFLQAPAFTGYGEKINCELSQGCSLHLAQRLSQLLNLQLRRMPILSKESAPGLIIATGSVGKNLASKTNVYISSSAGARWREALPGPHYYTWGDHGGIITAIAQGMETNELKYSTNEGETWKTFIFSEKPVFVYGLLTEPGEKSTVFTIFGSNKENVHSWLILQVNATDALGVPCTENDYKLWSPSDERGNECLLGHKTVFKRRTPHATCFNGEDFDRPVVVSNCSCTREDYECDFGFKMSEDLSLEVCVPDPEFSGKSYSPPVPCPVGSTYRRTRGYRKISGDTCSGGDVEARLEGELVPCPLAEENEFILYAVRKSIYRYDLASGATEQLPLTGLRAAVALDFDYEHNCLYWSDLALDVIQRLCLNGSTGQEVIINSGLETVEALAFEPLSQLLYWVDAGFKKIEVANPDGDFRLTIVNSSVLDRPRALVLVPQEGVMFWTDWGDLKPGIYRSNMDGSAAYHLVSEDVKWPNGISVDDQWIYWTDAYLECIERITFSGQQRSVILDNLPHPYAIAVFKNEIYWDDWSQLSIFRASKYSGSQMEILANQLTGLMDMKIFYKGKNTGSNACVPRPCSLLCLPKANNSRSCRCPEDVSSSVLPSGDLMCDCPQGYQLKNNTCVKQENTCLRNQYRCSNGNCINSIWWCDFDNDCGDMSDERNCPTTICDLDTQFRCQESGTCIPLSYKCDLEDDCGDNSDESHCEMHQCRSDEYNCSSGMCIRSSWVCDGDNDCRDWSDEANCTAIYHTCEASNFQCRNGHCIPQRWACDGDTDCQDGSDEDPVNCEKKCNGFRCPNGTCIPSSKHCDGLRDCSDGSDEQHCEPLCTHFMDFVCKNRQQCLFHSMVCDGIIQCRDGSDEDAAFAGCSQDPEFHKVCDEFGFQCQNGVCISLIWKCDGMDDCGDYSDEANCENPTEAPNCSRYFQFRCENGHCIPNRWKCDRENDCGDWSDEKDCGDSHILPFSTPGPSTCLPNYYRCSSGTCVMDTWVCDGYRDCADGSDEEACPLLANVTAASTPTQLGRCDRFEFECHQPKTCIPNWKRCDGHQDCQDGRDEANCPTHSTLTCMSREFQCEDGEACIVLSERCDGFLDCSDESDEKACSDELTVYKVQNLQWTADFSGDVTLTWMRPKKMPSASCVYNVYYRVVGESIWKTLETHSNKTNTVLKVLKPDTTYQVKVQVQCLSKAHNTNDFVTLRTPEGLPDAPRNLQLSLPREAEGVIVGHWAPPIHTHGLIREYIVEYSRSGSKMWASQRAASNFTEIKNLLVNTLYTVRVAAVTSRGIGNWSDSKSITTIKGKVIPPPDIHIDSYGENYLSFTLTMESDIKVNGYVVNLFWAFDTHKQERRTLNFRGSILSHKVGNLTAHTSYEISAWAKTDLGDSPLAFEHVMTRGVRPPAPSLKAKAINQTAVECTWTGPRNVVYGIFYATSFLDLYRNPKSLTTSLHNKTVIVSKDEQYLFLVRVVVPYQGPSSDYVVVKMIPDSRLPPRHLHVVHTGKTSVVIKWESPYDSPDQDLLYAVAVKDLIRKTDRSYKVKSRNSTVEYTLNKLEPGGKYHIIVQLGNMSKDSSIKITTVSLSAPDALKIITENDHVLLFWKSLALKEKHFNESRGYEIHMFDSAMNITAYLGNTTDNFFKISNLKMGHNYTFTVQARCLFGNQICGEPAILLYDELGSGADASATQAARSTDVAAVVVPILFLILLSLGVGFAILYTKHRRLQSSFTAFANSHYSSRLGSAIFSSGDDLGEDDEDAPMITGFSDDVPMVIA
In experiment [5] the target is T1, SorLA extracellular domain (immobilized on the Biacore chip) (Homo sapiens, UniProt Q92673 82-2137).
T1 construct: also called immobilized SorLA; LR11
T1 sequence (Q92673 82-2137 limits assumed): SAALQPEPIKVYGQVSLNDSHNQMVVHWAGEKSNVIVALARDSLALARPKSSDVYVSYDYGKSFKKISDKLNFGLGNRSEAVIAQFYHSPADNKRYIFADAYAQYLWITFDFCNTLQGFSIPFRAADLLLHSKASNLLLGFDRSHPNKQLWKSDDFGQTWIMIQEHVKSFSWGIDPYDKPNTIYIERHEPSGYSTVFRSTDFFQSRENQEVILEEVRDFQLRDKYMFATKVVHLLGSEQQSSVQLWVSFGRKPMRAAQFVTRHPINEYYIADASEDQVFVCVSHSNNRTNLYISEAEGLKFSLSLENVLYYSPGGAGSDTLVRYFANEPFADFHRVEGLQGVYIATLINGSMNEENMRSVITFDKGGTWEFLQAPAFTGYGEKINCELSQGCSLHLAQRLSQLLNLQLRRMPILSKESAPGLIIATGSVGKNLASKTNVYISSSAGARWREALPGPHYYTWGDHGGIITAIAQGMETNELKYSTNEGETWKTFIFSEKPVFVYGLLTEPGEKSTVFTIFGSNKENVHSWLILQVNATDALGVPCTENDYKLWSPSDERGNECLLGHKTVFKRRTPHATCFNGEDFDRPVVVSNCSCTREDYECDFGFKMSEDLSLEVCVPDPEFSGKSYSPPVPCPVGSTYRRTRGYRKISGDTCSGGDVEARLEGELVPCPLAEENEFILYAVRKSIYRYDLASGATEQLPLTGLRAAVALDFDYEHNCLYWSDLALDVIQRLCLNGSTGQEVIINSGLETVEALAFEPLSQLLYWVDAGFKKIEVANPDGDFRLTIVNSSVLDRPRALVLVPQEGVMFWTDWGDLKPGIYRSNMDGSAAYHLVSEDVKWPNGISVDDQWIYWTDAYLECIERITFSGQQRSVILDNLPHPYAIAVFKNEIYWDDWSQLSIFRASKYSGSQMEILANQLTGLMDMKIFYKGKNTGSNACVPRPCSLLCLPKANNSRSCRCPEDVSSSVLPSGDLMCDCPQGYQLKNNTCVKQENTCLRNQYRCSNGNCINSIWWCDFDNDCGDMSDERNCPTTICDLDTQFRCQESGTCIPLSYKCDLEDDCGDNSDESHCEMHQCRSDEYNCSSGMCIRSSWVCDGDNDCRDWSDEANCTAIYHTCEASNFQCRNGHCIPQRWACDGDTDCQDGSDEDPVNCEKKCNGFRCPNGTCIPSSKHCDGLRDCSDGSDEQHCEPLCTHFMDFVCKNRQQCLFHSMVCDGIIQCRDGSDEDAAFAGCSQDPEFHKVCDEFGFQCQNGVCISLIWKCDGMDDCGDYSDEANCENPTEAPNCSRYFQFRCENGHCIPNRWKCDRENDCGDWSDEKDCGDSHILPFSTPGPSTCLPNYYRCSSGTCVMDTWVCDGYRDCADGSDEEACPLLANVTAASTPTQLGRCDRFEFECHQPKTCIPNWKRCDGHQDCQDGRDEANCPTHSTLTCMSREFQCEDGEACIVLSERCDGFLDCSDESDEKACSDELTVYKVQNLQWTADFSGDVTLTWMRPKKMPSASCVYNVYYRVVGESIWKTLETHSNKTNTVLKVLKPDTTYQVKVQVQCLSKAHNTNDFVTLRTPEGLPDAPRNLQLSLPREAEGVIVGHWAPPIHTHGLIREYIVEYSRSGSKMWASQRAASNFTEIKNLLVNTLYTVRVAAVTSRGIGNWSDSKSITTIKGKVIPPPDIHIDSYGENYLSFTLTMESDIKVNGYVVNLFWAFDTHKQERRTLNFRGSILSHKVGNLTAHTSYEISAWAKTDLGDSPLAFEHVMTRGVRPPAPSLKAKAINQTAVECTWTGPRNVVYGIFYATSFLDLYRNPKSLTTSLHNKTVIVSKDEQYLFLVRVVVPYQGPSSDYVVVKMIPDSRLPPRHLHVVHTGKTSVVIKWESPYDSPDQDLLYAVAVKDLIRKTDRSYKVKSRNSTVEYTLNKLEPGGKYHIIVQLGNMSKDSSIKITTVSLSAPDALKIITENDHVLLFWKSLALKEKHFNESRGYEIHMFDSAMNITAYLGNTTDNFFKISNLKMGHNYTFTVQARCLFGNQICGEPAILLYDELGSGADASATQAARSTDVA
The experiment is described as follows: SPR, immobilized SorLA.

In experiment [6] the target is T1, SorLA extracellular domain (immobilized …). The experiment is described as follows: SPR (Biacore), SorLA immobilized; SorLApro 10 uM by the legend, injected before GDNF in the inhibition experiment. On the procedure:
(§1) (A) The domain structure of SorLA is depicted. (B) GDNF binds to immobilized SorLA in a concentration-dependent manner as shown by SPR. […] (C) SorLA binding is selective for GDNF and not the other GDNF family ligands, artemin, neuturin, and persephin. The neurotrophic factor concentrations used are 20 nM. (D) The interaction is mediated by the mature part of GDNF and not the GDNF propeptide (GDNFpro). Sensorgrams of 100 nM ligand concentration are shown. […] (G-H) Internalization of 50 nM GDNF by 293 cells or 293 cells stably expressing SorLA. Internalized GDNF (green) was visualized by immunofluorescense. (I) GDNF internalization was inhibited by excess neurotensin (NT, 20 μM).

Experiment [7] shares this target. The experiment is described as follows: SPR, GDNF over immobilized SorLA; upper end of the range. On the procedure:
as §1

The target is the same in experiment [8]. In words: SPR, GDNF over immobilized SorLA; lower end of the range. On the procedure: as §1
The target is the same in experiment [9]. In words: SPR (Biacore), SorLA immobilized; GST fusion protein, concentration not given. An excerpt:
(A) fusion proteins between GST and the GDNF propeptide (GDNFpropep), the N-terminal 38 amino acids of mature GDNF (GDNFN-term), or the GDNF propeptide followed by the first 38 amino acids of mature GDNF (GDNFN-term propep) binding to immobilized SorLA. GST alone is included as negative control. (B) a peptide encompassing the first 38 amino acids of mature GDNF binds to SorLA in concentration-dependent manner.

For experiment [10] the target is unchanged. In words: SPR, immobilized SorLA (title of Fig. 17).

Chain of SorLA extracellular domain (immobilized on the Biacore chip) (Homo sapiens) (Q92673 82-2137 limits assumed): as above

Take “soluble full length GFRα1 (from UniProt P56159 25-429) (receptor)”: the dissociation constant (Kd) was 10 nM in experiment [1], 12 nM in experiment [2] and 6 nM in experiment [3]. For the molecule “N-terminal truncated soluble GFRα1 variant lacking domain 1 (from UniProt P56159 145-429) (receptor)”, in [2], the Kd came to 120 nM. “GFRα1 expressed on cells (stably transfected HEK293 cells) (from UniProt P56159 25-429) (receptor)” yielded a mean Eapp% in experiment [4] of 16%.

B1: neuturin (neurturin) (ligand, UniProt Q99748 96-197, looked up)
chain: ARLGARPCGLRELEVRVSELGLGYASDETVLFRYCAGACEAAARVYDLGLRRLRQRRRLRRERVRAQPCCRPTAYEDEVSFLDAHSRYHTVHELSARECACV
notes: also called NRTN
For B1, the binding result in [5] is given as “no binding (tested: 20 nM)”.

B2: SorLA propeptide (peptide)
peptide: EVWTQRLHGGSAPLPQDRGFLVVQGDPRELRLWARGDARGASRADEKPLRRKR
In the case of B2, in [6], the binding result is “binds”.

B3: Glia cell-derived neurotrophic factor (GDNF) (ligand)
chain: SPDKQMAVLPRRERNRQAAAANPENSRGKGRRGQRGKNRGCVLTAIHLNVTDLGLGYETKEELIFRYCSGSCDAAETTYDKILKNLSRNRRLVSDKVGQACCRPIAFDDDLSFLDDNLVYHILRKHSAKRCGCI
notes: also called mature GDNF
As to B3, the figures for the equilibrium dissociation constant (Kd) in experiment [7] and in [8] were ≤ 8 nM and ≥ 3 nM, respectively.

B4: persephin (ligand, UniProt O60542 61-156, looked up)
chain: ALSGPCQLWSLTLSVAELGLGYASEEKVIFRYCAGSCPRGARTQHGLALARLQGQGRAHGGPCCRPTRYTDVAFLDDRHRWQRLPQLSAAACGCGG
notes: also called PSPN
As for B4, in [5], the binding result was “no binding (tested: 20 nM)”.

B5: artemin (ligand, UniProt Q5T4W7 108-220, looked up)
chain: AGGPGSRARAAGARGCRLRSQLVPVRALGLGHRSDELVRFRFCSGSCRRARSPHDLSLASLLGAGALRPPPGSRPVSQPCCRPTRYEAVSFMDVNSTWRTVDRLSATACGCLG
notes: also called ARTN
With B5, the binding result in experiment [5] is “no binding (tested: 20 nM)”.

B6: GDNFpropep (other)
fusion protein: FPLPAGKRPPEAPAEDRSLGRRRAPFALSSDSNMPEDYPDQFDDVMDFIQATIKRLKR
notes: also called GST fusion of the GDNF propeptide
For B6, the binding result in [9] was “no binding”.

B7: GDNF propeptide (peptide)
peptide: B6 fusion protein
As to B7, the binding result in experiment [5] was “no binding (tested: 100 nM)”.

B8: GDNFN-term propep (other, not shown: a dimerising Fc or GST; large carriers; small tags and cut ends)
chain: FPLPAGKRPPEAPAEDRSLGRRRAPFALSSDSNMPEDYPDQFDDVMDFIQATIKRLKRSPDKQMAVLPRRERNRQAAAANPENSRGKGRRGQRGKN
notes: also called GST fusion of the GDNF propeptide followed by the first 38 amino acids of mature GDNF
Turning to B8, the binding result in experiment [9] is reported as “binds”.

B9: GDNFN-term (other)
chain: SPDKQMAVLPRRERNRQAAAANPENSRGKGRRGQRGKN
modifications: also: GST fusion partner (letters not given here)
notes: also called GST fusion of the N-terminal 38 amino acids of mature GDNF; not shown: GST fusion partner and any linker to it
Turning to B9, the binding result in experiment [9] is given as “binds”.

B10: peptide encompassing the first 38 amino acids of mature GDNF (peptide)
peptide: B9 chain
notes: also called N-terminal 38 amino acids of mature GDNF
Consider B10, for which the binding result in experiment [10] is recorded as “binds”.
